{
  "source": "paper PMC3030945",
  "about": "(The Journal of Membrane Biology, 2010)",
  "key": {"[1]": {"assay": "Isothermal titration calorimetry: enthalpy of melittin partitioning into SUVs", "type": "physicochemical", "conditions": "POPC SUVs, 25°C; ITC, 10 μl of 100 μM melittin into 5 mM lipid"}, "[2]": {"assay": "CD titration of melittin with SUVs: free energy of partitioning", "type": "physicochemical", "conditions": "5 mM lipid, estimated from measured partitioning free energy ΔG"}, "[3]": {"type": "physicochemical", "conditions": "all lipid mixtures; van't Hoff analysis of CD partitioning data"}, "[4]": {"assay": "Hydrophobic-effect free energy ΔG hϕ calculated from measured heat capacity", "type": "physicochemical", "conditions": "for hydrophobic free energy ΔG hϕ: calculated from measured heat capacity"}, "[5]": {"conditions": "cited from earlier work"}, "[6]": {"assay": "CD spectroscopy: helical content of membrane-bound melittin", "type": "physicochemical", "conditions": "for peptide helical fraction f α: 25°C, CD molar ellipticity at 222 nm"}, "[7]": {"conditions": "various methods, mole-fraction partition coefficients, ref Beschiaschvili and Baeuerle 1991, Kuchinka and Seelig 1989, Ladokhin et al. 2000, Ladokhin and White 1999, Schwarz and Beschiaschvili 1989, Vogel 1981; cited from earlier work"}, "[8]": {"assay": "Isothermal titration calorimetry: enthalpy of melittin partitioning into LUVs", "type": "physicochemical", "conditions": "for −TΔS: from ΔG = ΔH − TΔS, ± joint confidence limits"}},
  "data": [
    {"substance": "melittin", "values": [
      {"measurement": "enthalpy change, before corrections", "setting": "[1]", "result": "≈ −10 kcal mol^−1"},
      {"measurement": "fraction of melittin bound", "setting": "[2]", "result": 95, "unit": "%"},
      {"measurement": "heat capacity change", "setting": "[3]", "result": "approximately −0.5 kcal mol^−1 K^−1"},
      {"measurement": "T h (temperature at which ΔH hϕ has a bulk-phase transfer value of 0)", "setting": "[4]; POPC", "result": 326, "unit": "K"},
      {"measurement": "T s (temperature at which ΔS hϕ has a bulk-phase transfer value of 0)", "setting": "[4]; POPC", "result": 336, "unit": "K"},
      {"measurement": "T h", "setting": "[4]; POPC50:POPG50", "result": 292, "unit": "K"},
      {"measurement": "T s", "setting": "[4]; POPC50:POPG50", "result": 305, "unit": "K"},
      {"measurement": "hydrophobic free energy ΔG hϕ", "setting": "[4]; POPC50:POPG50, 25°C", "result": "−7.50 (±0.52) kcal mol^−1"},
      {"measurement": "T h", "setting": "[4]; POPC75:POPG25", "result": 294, "unit": "K"},
      {"measurement": "T s", "setting": "[4]; POPC75:POPG25", "result": 306, "unit": "K"},
      {"measurement": "hydrophobic free energy ΔG hϕ", "setting": "[4]; POPC75:POPG25, 25°C", "result": "−6.87 (±0.30) kcal mol^−1"},
      {"measurement": "T h", "setting": "[4]; POPC90:POPG10", "result": 296, "unit": "K"},
      {"measurement": "T s", "setting": "[4]; POPC90:POPG10", "result": 316, "unit": "K"},
      {"measurement": "hydrophobic free energy ΔG hϕ", "setting": "[4]; POPC90:POPG10, 25°C", "result": "−6.68 (±0.22) kcal mol^−1"},
      {"measurement": "contribution of the hydrophobic effect to the total free energy", "setting": "[4]; POPC, 25°C", "result": "approximately 79%"},
      {"measurement": "hydrophobic free energy ΔG hϕ", "setting": "[4]; POPC, 25°C", "result": "−4.88 (±2.83) kcal mol^−1"},
      {"measurement": "electrical valence (formal valence)", "setting": "[5]; formal peptide charge as stated, no reference given", "result": "5–6"},
      {"measurement": "effective charge", "setting": "[5]; literature value, ref Beschiaschvili and Baeuerle 1991", "result": "≈ 2"},
      {"measurement": "fraction of peptide bound", "setting": "[6]; POPC50:POPG50, 5°C, CD", "result": "≈ 0.57"},
      {"measurement": "peptide helical fraction f α", "setting": "[6]; POPC50:POPG50 LUVs", "result": 0.71},
      {"measurement": "peptide helical fraction f α", "setting": "[6]; POPC75:POPG25 LUVs", "result": 0.73},
      {"measurement": "peptide helical fraction f α", "setting": "[6]; POPC90:POPG10 LUVs", "result": 0.71},
      {"measurement": "peptide helical fraction f α", "setting": "[6]; POPC LUVs, Luo and Baldwin formula", "result": 0.71},
      {"measurement": "α-helical content", "setting": "[6]; melittin bound to a lipid membrane at 25°C, CD", "result": "~ 70%"},
      {"measurement": "helical fraction of peptide (or the fraction of peptide bound)", "setting": "[6]; pure POPC, 5°C, CD", "result": "≈ 0.57"},
      {"measurement": "fraction of peptide bound", "setting": "[6]; pure POPC, 60°C, CD", "result": "≈ 0.63"},
      {"measurement": "free energy of partitioning of unfolded melittin into the bilayer interface of POPC vesicles", "setting": "[7]", "result": "−6 to −7", "unit": "kcal mol^−1"},
      {"measurement": "change of heat capacity", "setting": "[8]; LUVs at different lipid content, slope of enthalpy vs temperature (Fig. 4b)", "result": "about −0.5 kcal/molK"},
      {"measurement": "−TΔS", "setting": "[8]; POPC 50%:POPG 50% LUVs, 25°C", "result": "−2.8 (±1) kcal mol^−1"},
      {"measurement": "−TΔS", "setting": "[8]; POPC 50%:POPG 50% LUVs, 40°C", "result": "3.08 (±1) kcal mol^−1"},
      {"measurement": "−TΔS", "setting": "[8]; POPC 50%:POPG 50% LUVs, 50°C", "result": "8.73 (±1.1) kcal mol^−1"},
      {"measurement": "−TΔS", "setting": "[8]; POPC 50%:POPG 50% LUVs, 60°C", "result": "16.99 (±1.5) kcal mol^−1"},
      {"measurement": "−TΔS", "setting": "[8]; POPC 75%:POPG 25% LUVs, 25°C", "result": "−4.42 (±0.6) kcal mol^−1"},
      {"measurement": "−TΔS", "setting": "[8]; POPC 75%:POPG 25% LUVs, 40°C", "result": "3.24 (±0.8) kcal mol^−1"},
      {"measurement": "−TΔS", "setting": "[8]; POPC 75%:POPG 25% LUVs, 50°C", "result": "8.32 (±0.4) kcal mol^−1"},
      {"measurement": "−TΔS", "setting": "[8]; POPC 75%:POPG 25% LUVs, 60°C", "result": "15.06 (±1.1) kcal mol^−1"},
      {"measurement": "−TΔS", "setting": "[8]; POPC 90%:POPG 10% LUVs, 25°C", "result": "−5.9 (±1.5) kcal mol^−1"},
      {"measurement": "−TΔS", "setting": "[8]; POPC 90%:POPG 10% LUVs, 40°C", "result": "−2.25 (±0.9) kcal mol^−1"},
      {"measurement": "−TΔS", "setting": "[8]; POPC 90%:POPG 10% LUVs, 50°C", "result": "3.3 (±1) kcal mol^−1"},
      {"measurement": "−TΔS", "setting": "[8]; POPC 90%:POPG 10% LUVs, 60°C", "result": "5.73 (±1.1) kcal mol^−1"},
      {"measurement": "−TΔS", "setting": "[8]; POPC 100%:POPG 0% LUVs, 40°C", "result": "−12.3 (±1.6) kcal mol^−1"},
      {"measurement": "−TΔS", "setting": "[8]; POPC 100%:POPG 0% LUVs, 50°C", "result": "−6.2 (±1.4) kcal mol^−1"},
      {"measurement": "−TΔS", "setting": "[8]; POPC 100%:POPG 0% LUVs, 60°C", "result": "−3.2 (±1.3) kcal mol^−1"},
      {"measurement": "heat capacity associated with partitioning", "setting": "[8]; all lipid mixtures (POPC:POPG 0–50% POPG), independent of lipid composition", "result": "about −0.5 kcal mol^−1 K^−1"}
    ]}
  ]
}
